Tests used:
[1] = biological target: T1, IL-4 receptor alpha chain (UniProt P24394 26-232, limits assumed); assay: Biacore assay, pre- and post-nebulized IL-4RA samples (Aeroneb Pro); no difference between them
T1 construct: also called IL-4Rα; IL-4 receptor α chain
T1 sequence (looked up): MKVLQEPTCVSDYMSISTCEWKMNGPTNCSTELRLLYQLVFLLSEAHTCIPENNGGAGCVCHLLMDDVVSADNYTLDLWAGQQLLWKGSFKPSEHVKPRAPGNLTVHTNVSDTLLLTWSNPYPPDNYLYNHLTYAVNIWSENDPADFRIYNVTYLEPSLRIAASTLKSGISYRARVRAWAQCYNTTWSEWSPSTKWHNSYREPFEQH

[2] = biological target: T1, IL-4 receptor alpha chain; assay: Biacore (SPR), IL-4 receptor α chain immobilized; n = 7
[3] = biological target: T1, IL-4 receptor alpha chain; assay: Biacore (SPR), IL-4 receptor α chain immobilized
[4] = biological target: T1, IL-4 receptor alpha chain; assay: cell-based or functional assay

- Kd [1]: ~0.1 nM
- Kd [2]: 0.14 nM
- koff [3]: 0.0017 s⁻¹
- kon [3]: 1.6e+07 M⁻¹ s⁻¹
- EC50, inhibition of IL-4-induced cell proliferation (TF-1/IL-4 proliferation assay), pre and post nebulization (Aeroneb Pro) [4]: 0.2 to 0.3 nM
- IC50, TF-1 proliferation assay, post nebulization (Pari LC Plus) [4]: 0.483 nM
- IC50, TF-1 proliferation assay, pre nebulization (Pari LC Plus) [4]: 0.459 nM
B1: IL-4RA (mutant human IL-4 protein with the R121D/Y124D pair of substitutions) (ligand)
chain: MHKCDITLQEIIKTLNSLTEQKTLCTELTVTDIFAASKNTTEKETFCRAATVLRQFYSHHEKDTRCLGATAQQFHRHKQLIRFLKRLDRNLWGLAGLNSCPVKEANQSTLENFLERLKTIMDEKDSKCSS
notes: The entry may carry an N-terminal methionine; also called mhIL-4; IL-4 mutein

From patent US7947648 (AEROVANCE, dated 2011)
